Test: Activity of AsGT2 towards salicylate (radioactive TLC assay and LC-MS assay)
Type: biochemical
Parameters: key: A “+” denotes activity
Details: acceptor substrate salicylate; sugar donor L-arabinose; recombinant AsGT2 expressed in E. coli
Method: Radioactive assays with a complex acceptor substrate were used to detect low level activity with pure or enriched substrates. The assays contained 4 μl ^14C-UDP-glucose, 25 μl 50 mM potassium phosphate buffer pH 7.6, 0.25 μl 100 mM acceptor substrate in DMSO, 5 μl of the dialyzed protein preparation, and 3 μl 10 mM DTT. The reaction proceeded at 28 degrees Celsius for 2.5 hours shaking gently before stopping by the addition of 50 μl chloroform:methanol (2:1). The aqueous phase was extracted three more times with chloroform methanol and the solvent phases were pooled. The extracts were dried down at 60 degrees Celsius and resuspended in 40 μl of chloroform:methanol. The aqueous phase was dried down also and resuspended in water. A silica-gel TLC plate was loaded with 15 μl of the extracts and chromatographed with chloroform:methanol:water (13:6:1) against standards.
The acceptor substrates tested were β-amyrin-arabinoside, benzoic acid and salicylic acid. The sugars donors tested were D-glucose and L-arabinose.
To confirm the chemical structures of the products visualized by the radioactive assay a non-radioactive LC-MS assay was developed. […] Reactions were stopped by the addition of 100% methanol, which was then evaporated from the reaction at 50 degrees Celsius, and were analysed by LC/MS/MS using reversed-phase chromatography. […]

B1: AsGT2: family 1 glucosyltransferase from Avena strigosa (SEQ ID NO:6), expressed in E. coli and purified (protein, listed as Avena strigosa)
chain: MGAEWEHVSDIHVLLLPYPVQGHINPMLQFGKRLAHIGGVGVRCTLAITPYLLRQCQDPCPGAVHLVEISDGFDSAGFEEVGDVAAYLAGMESAGSRTLDELLRSEAEKGRPIHAVVYDAFLQPWVPRVARLHGAACVSFFTQAAAVNVAYSRRVGKIEEGLPAGFEAEDLPTFLTLPLPYQDMLLSQFVGLDAVDHVLVNSFHELQPQESAYMESTWGAKTVGPTVPSAYLDKRITDDVSYGFHLYTPMTATTKAWLDAQPPRSVTYVSFGSMATPGPTEMAEMAEGLHSSGKAFLWVVRASEASKIPDGFQERVGGRGLVVTWVAQLEVLAHGAIGCFVTHCGWNSTMEALGAGVPMVAVPQWSDQPTNAKFVEDVWCVGVRARRDPEGVVRREELERCIREVTGDDKYACNALDWKEKSKRAMSQGGSSDMNITEFLQALRRSRKSYEAKPIEPLLVGLDA
Activity of AsGT2 towards Salicylate, L-Ara: +
